# Measurements taken from the DeepSol protein solubility set.
# Experiment: soluble on expression in E. coli; label from the status in PepcDB or PDB records
row,Sequence,soluble on expression in E. coli
1,MNDISAPEQYDLQTAALKVPPHSIEAEQAVLGGLMLDNNAWERVLDQVSDGDFYRHDHRLIFRAIAKLADQNSPIDVVTLAEQLDKEGQTSQVGGLGYLSELAKNTPSVANIKAYAQIVRARATLRQLIGISTEIADSAFNPEGRTAEEILDEAERQIFQIAEARPKTGGPVSVNDLLTKAIDRIDTLFNSDNAITGLSTGYTDLDEKTSGLQPADLIIVAGRPSMGKTTFAMNLVENAVLRSDKVVLVYSLEMPGESLIMRMLSSLGRIDQTKVRAGRLDDDDWPRLTSAVNLLNDRKLFIDDTAGISPSEMRARTRRIVREHGEIGMIMIDYLQLMQIPGSSGDNRTNEISEISRSLKALAKEFNCPVIALSQLNRSLEQRPNKRPINSDLRESGAIEQDADVIMFVYRDEVYHPETEHKGIAEIIIGKQRNGPIGTTRLAFIGKYTRFENLAPGSYNFDDD,not soluble
2,MSLHINQLLQHANSDLPLLQANFGLERESLRINKTNHRLAQTPHPTALGSRQFHPYIQTDYSESQMELITPVAHSSKEVLRFLGAITDVAERSIDQNQYLWPLSMPPQITEDEIEIAQLEDDFEFSYRQYLDKKYGKILQSISGIHYNMELGADLMNELFELSGYQSFIDFKNDLYLKVAQNFLNYRWFLTYLYGASPLAEKGFLNEELSQTVRSIRNSHLGYVNTDDIKVPFDSLENYISSIEHYVKSGALSAEKEFYSAVRLRGSKHNRDYLTKGITYLEFRCFDLNPFNNRGITQETIDSVHLFILAMLWLDTPKKLNQALDKAQKLNDKIALSHPLEKLPKENSASLIIEAMEALIKHFKLPSYYDDLLIAIKKQVENPKLTLSGRLFEHIKHASLEHFGQKKGQDYHNYAWQNYYALKGYENMELSTQMLLFDTIQKGIHFEILDENDQFLKLWHNDHIEYVKNGNMTSKDNYVIPLAMANKVVTKKILRENGYPVPAGAEFDNKDEALRYYSQIKNKPIVVKPKTTNFGLGISIFETAASHNDYEKALDIAFIEDYSVLVEEFIPGTEYRFFILDGKCEAVLLRVAANVVGDGHSTVRQLVAQKNRDPLRGREHRSPLEIIDLGDIELLMLQQEGYTLEDILPKGKKVNLRGNSNISTGGDSIDVTETMDPSYKQLAANMATAMGAWVCGVDLIIPDTNLKASKGKPNCTCIELNFNPSMYMHTYCYQGPGQVITGKILAKLFPEISTKIEGHHHHHH,soluble
3,MSLAAVFPLADFRRAGFDRAGESDAWKDSIIKGDCVAALDALPSQSVDAIFADPPYNLQLGGTLHRPDQSLVDAVDDEWDQFASFDAYDAFTRAWLLACRRVLKPNGTIWVIGSYHNIFRVGAMLQNLDFWILNDIVWRKTNPMPNFKGRRFQNAHETMIWASRDPKAKSYTFNYDALKASNDDVQMRSDWLFPICSGHERLKGDDGKKVHPTQKPEALLARIIMASTKPGDIVLDPFFGSGTTGAVAKRLGRHFVGIEREQDYIDAASARITAVEPLGKAELTVMTGKKAEPRVAFNTLVESGLVRPGQVLTDARRRYSAIIRADGTLASGGTAGSIHRLGAKVQGLDACNGWTFWHFEDGDALKPIDDLRTIIRSEMAKAEGHHHHHH,soluble
4,MGSDKIHHHHHHMKILVAMSGGVDSTVTAYKLKNLGHEVIGCYMKLHGKPNYHEENIKKVEKVANFLQIPYHILDLQEDFKNKVYMPFVDTYKEGKTPNPCALCNRFIKLGKLLEFAKSLGCEKLATGHYARLENNLIKTAVDESKDQSYFLASADKEALKYLIFPLGEMKKEDVKKFASTIEVLKSFATQKESSEICFVEDTYVQVLDQFMDTKIPGEVLDSSGKVVGKHEGYMHYTIGKRRGFEVRGAHEPHFVLKINPKQNQIIVGTKEELKISEFNLKNINLFIDAKELDCEVKIRYRSKSTPCKVEIYEDKSAKIILKDPVYGLASGQMAVFYDHDKVIASGFIE,not soluble
5,MNTQKRQQIRTEIRKIRANLTALQQHQAEQSVTQHALNLIEQRQAKNIALYFSFDGEISTKALIQSLWMQNKNVYLPVLHPFTKHYLLFLRYLPDTPMKQNQFGIWEPKLNVQNVLPLNELDILFTPLVAFDKKGNRLGMGGGFYDRTLQNWQNKSFIPVGLAYQCQQVENLPTEHWDVPLFDILVGLEHHHHHH,not soluble
6,MNRSMKQYDPIDFVVDWVDSNDISWKKKKSLYEENVISSVDDSQARYRDWGIFKYWFRAVEKNAPWVHKIFIITDHQNPKFLNKHSSKIVFVNHEDFIPNEYLPTFNSDAIEIGIQNIPGLSEHFVFFNDDMFINKPVKPIDFFDGNIPKDSGVMGPQFPISNSITHITVNNMEIINKYFLKKKVLRKYFFKFFNWRYGKDNIRTATALPWQVFIGFYDMHIPISFLKSTFDNVWSEVGNLLSQNYQHRFRSQLDYSVWLMRYFQLASGNFFPRRTRFGKYYNLGEQTEEIINDIKTGKHALIVLNDQESINDYPYEKKLVNEVFERRYSRKSEFENLEHHHHHH,not soluble
